Tests used:
[1] = target: T1, internally quenched peptide probe with CM WGLSGRS (SEQ ID NO: 685)
T1 chain: GSWGLSGRSGKR

[2] = target: T2, internally quenched peptide probe with CM PWALSGRS (SEQ ID NO: 688)
T2 chain: SPWALSGRSGKR

[3] = target: internally quenched peptide probe with CM RSPWGL (SEQ ID NO: 90)
[4] = target: T3, internally quenched peptide probe with CM LSGKSPWGL (SEQ ID NO: 178)
T3 chain: SLSGKSPWGLGKR

[5] = target: T4, internally quenched peptide probe with CM PWGLSGRA (SEQ ID NO: 693)
T4 chain: SPWGLSGRAGKR

[6] = target: T5, internally quenched peptide probe with CM PWGLSARS (SEQ ID NO: 691)
T5 chain: SPWGLSARSGKR

[7] = target: T6, internally quenched peptide probe with CM AWGLSGRS (SEQ ID NO: 686)
T6 chain: SAWGLSGRSGKR

[8] = target: T7, internally quenched peptide probe with CM PWGLSGRS (SEQ ID NO: 12)
T7 chain: SPWGLSGRSGKR

[9] = target: T8, internally quenched peptide probe with CM PWGASGRS (SEQ ID NO: 689)
T8 chain: SPWGASGRSGKR

[10] = target: T9, internally quenched peptide probe with CM PWGLSG (SEQ ID NO: 684)
T9 chain: SPWGLSGGGSKR

[11] = target: T10, internally quenched peptide probe with CM PAGLSGRS (SEQ ID NO: 687)
T10 chain: SPAGLSGRSGKR

[12] = target: T11, internally quenched peptide probe with CM LSGRSPAGL (SEQ ID NO: 694)
T11 chain: SLSGRSPAGLGKR

[13] = target: internally quenched peptide probe with CM PWGLRS (SEQ ID NO: 48)
[14] = target: T12, internally quenched peptide probe with CM PWGLSGR (SEQ ID NO: 163)
T12 chain: SPWGLSGRGSKR

[15] = target: T13, internally quenched peptide probe with CM PWGLSGAS (SEQ ID NO: 692)
T13 chain: SPWGLSGASGKR

[16] = target: T14, internally quenched peptide probe with CM PWGLSGKS (SEQ ID NO: 150)
T14 chain: SPWGLSGKSGKR

[17] = target: T15, internally quenched peptide probe with CM PWGLAGRS (SEQ ID NO: 690)
T15 chain: SPWGLAGRSGKR

[18] = target: T16, internally quenched peptide probe with CM LSGRSPWGL (SEQ ID NO: 177)
T16 chain: SLSGRSPWGLGKR

Protein | Probe Cleavage (pM/s) [1] | Probe Cleavage (pM/s) [2] | Probe Cleavage (kcat/KM (M^-1 s^-1)) [3] | Probe Cleavage (pM/s) [3] | Probe Cleavage (pM/s) [4] | Probe Cleavage (pM/s) [5] | Probe Cleavage (pM/s) [6] | Probe Cleavage (pM/s) [7] | Probe Cleavage (kcat/KM (M^-1 s^-1)) [8] | Probe Cleavage (pM/s) [8] | Probe Cleavage (pM/s) [9] | Probe Cleavage (pM/s) [10] | Probe Cleavage (pM/s) [11] | Probe Cleavage (pM/s) [12] | Probe Cleavage (kcat/KM (M^-1 s^-1)) [13] | Probe Cleavage (pM/s) [13] | Probe Cleavage (pM/s) [14] | Probe Cleavage (pM/s) [15] | Probe Cleavage (kcat/KM (M^-1 s^-1)) [16] | Probe Cleavage (pM/s) [16] | further results
matrix metalloprotease 2 (MMP2) (protein) YNFFPRKPKWDKNQITYRIIGYTPDLDPETVDDAFARAFQVWSDVTPLRFSRIHDGEADIMINFGRWEHGDGYPFDGKDGLLAHAFAPGTGVGGDSHFDDDELWTLGEGQVVRVKYGNADGEYCKFPFLFNGKEYNSCTDTGRSDGFLWCSTTYNFEKDGKYGFCPHEALFTMGGNAEGQPCKFPFRFQGTSYDSCTTEGRTDGYRWCGTTEDYDRDKKYGFCPETAMSTVGGNSEGAPCVFPFTFLGNKYESCTSAGRSDGKMWCATTANYDDDRKWGFCPDQGYSLFLVAAHEFGHAMGLEHSQDPGALMAPIYTYTKNFRLSQDDIKGIQELYGASPDIDLGTGPTPTLGPVTPEICKQDIVFDGIAQIRGEIFFFKDRFIWRTVTPRDKPMGPLLVATFWPELPEKIDAVYEAPQEEKAVFFAGNEYWIYSASTLERGYPKPLTSLGLPPDVQRVDAAFNWSKNKKTYIFAGDKFWRYNEVKKKMDPGFPKLIADAWNAIPDNLDAVVDLQGGGHSYFFKGAYYLKLENQSLKSVKFGSIKSDWLGC | 66.4 pM/s | 4890 pM/s | 260000 M⁻¹ s⁻¹ | 11700 pM/s | 37.1 pM/s | 6100 pM/s | 9580 pM/s | 816 pM/s | 78000 M⁻¹ s⁻¹ | 2920 pM/s | 202 pM/s | 3100 pM/s | Above the limit of quantification | 2080 pM/s | 140000 M⁻¹ s⁻¹ | 3800 pM/s | 6540 pM/s | 4370 pM/s | 59000 M⁻¹ s⁻¹ | 1620 pM/s | Probe Cleavage (pM/s) [17]: 4870 pM/s; Probe Cleavage (pM/s) [18]: 48.9 pM/s
membrane type serine protease 1 (MT-SP1) (protein) VVGGTDADEGEWPWQVSLHALGQGHICGASLISPNWLVSAAHCYIDDRGFRYSDPTQWTAFLGLHDQSQRSAPGVQERRLKRIISHPFFNDFTFDYDIALLELEKPAEYSSMVRPICLPDASHVFPAGKAIWVTGWGHTQYGGTGALILQKGEIRVINQTTCENLLPQQITPRMMCVGFLSGGVDSCQGDSGGPLSSVEADGRIFQAGVVSWGDGCAQRNKPGVYTRLPLFRDWIKENTGV | 10600 pM/s | 15300 pM/s | 48000 M⁻¹ s⁻¹ | 2390 pM/s | 595 pM/s | 7620 pM/s | 13100 pM/s | 17000 pM/s | 150000 M⁻¹ s⁻¹ | 7810 pM/s | 18000 pM/s | 5.1 pM/s | 16500 pM/s | 1520 pM/s | 31000 M⁻¹ s⁻¹ | 1230 pM/s | 1290 pM/s | 13 pM/s | 80000 M⁻¹ s⁻¹ | 2330 pM/s | Probe Cleavage (pM/s) [17]: 15800 pM/s; Probe Cleavage (pM/s) [18]: 812 pM/s

— patent US20250215095
